According to paper PMC9541495, “Understanding the interaction of 14‐3‐3 proteins with hDMX and hDM2: a structural and biophysical study” (The Febs Journal, 2022):

T1: FAM‐Ahx‐hDMX_(335‐373) ^pSer342/pSer367 (human, phosphoserine at 342 and at 367; N-terminal FAM-Ahx (5,6-carboxyfluorescein on an aminohexanoic acid linker); C-terminal amide)
T1 construct: hDMX (human double minute 4 protein, hDM4), human, residues 335-373; Tracer form used in the FA assays; source: synthetic peptide (Fmoc SPPS on Rink amide ProTide resin, HPLC purified)
T1 peptide: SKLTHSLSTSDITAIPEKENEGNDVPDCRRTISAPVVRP

T2: 14‐3‐3β (human, UniProt P31946 1-246)
T2 construct: 14-3-3 beta, human, full-length protein from the pProEx HTb-His-14-3-3 construct; Written as the protomer; tag removal is told only for the ∆C proteins; source: E. coli BL21(DE3), purified (Ni2+-NTA, dialysis)
T2 sequence (looked up): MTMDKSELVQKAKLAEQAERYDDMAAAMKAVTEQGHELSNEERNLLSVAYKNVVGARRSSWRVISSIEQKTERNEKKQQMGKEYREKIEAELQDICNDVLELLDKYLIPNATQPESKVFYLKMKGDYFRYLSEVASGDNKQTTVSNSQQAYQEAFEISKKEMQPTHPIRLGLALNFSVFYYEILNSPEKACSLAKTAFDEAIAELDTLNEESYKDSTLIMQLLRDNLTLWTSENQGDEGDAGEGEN

T3: 14‐3‐3τ (human, UniProt P27348 1-245)
T3 construct: 14-3-3 tau/theta, human, full-length protein from the pProEx HTb-His-14-3-3 construct; Written as the protomer; tag removal is told only for the ∆C proteins; also called τ/θ; source: E. coli BL21(DE3), purified (Ni2+-NTA, dialysis)
T3 sequence (looked up): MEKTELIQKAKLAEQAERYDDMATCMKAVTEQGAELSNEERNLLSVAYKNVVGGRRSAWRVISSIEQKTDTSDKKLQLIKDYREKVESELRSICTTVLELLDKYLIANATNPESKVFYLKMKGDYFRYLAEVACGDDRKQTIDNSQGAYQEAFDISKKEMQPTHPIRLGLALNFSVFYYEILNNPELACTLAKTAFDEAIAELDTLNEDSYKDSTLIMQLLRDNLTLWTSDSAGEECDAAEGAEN

T4: 14‐3‐3ζ (human, UniProt P63104 1-245)
T4 construct: 14-3-3 zeta, human, full-length protein from the pProEx HTb-His-14-3-3 construct; Written as the protomer; tag removal is told only for the ∆C proteins; source: E. coli BL21(DE3), purified (Ni2+-NTA, dialysis)
T4 sequence (looked up): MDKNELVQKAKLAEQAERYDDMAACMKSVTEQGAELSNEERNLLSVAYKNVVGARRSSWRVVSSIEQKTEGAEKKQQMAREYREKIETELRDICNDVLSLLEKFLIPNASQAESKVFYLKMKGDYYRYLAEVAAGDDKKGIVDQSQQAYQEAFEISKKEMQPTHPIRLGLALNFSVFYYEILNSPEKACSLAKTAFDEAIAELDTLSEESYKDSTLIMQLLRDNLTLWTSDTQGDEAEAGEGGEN

T5: 14‐3‐3σ (human, UniProt P31947 1-248)
T5 construct: 14-3-3 sigma, human, full-length protein from the pProEx HTb-His-14-3-3 construct (used in the FA assays); Written as the protomer; tag removal is told only for the ∆C proteins; source: E. coli BL21(DE3), purified (Ni2+-NTA, dialysis)
T5 sequence (looked up): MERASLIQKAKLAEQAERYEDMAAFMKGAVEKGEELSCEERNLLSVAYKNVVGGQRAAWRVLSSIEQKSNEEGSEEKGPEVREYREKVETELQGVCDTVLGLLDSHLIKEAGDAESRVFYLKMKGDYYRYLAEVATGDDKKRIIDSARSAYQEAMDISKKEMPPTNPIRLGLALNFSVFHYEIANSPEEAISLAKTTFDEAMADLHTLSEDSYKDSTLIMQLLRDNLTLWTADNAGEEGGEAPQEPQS

T6: 14‐3‐3ε (human, UniProt P62258 1-255)
T6 construct: 14-3-3 epsilon, human, full-length protein from the pProEx HTb-His-14-3-3 construct; Written as the protomer; tag removal is told only for the ∆C proteins; source: E. coli BL21(DE3), purified (Ni2+-NTA, dialysis)
T6 sequence (looked up): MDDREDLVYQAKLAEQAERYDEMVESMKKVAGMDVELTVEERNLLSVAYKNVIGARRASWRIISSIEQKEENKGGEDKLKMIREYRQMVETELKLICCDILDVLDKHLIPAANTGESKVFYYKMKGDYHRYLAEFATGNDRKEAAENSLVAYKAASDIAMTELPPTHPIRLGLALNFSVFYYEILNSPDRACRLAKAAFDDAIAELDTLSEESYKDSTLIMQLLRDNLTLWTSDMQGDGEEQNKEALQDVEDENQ

B1: 14‐3‐3η (natural protein, human, UniProt Q04917 1-246, looked up)
chain: MGDREQLLQRARLAEQAERYDDMASAMKAVTELNEPLSNEDRNLLSVAYKNVVGARRSSWRVISSIEQKTMADGNEKKLEKVKAYREKIEKELETVCNDVLSLLDKFLIKNCNDFQYESKVFYLKMKGDYYRYLAEVASGEKKNSVVEASEAAYKEAFEISKEQMQPTHPIRLGLALNFSVFYYEIQNAPEQACLLAKQAFDDAIAELDTLNEDSYKDSTLIMQLLRDNLTLWTSDQQDEEAGEGN
notes: 14-3-3 eta, human, full-length protein from the pProEx HTb-His-14-3-3 construct; Captured on an NTA chip in SPR; source: E. coli BL21(DE3), purified (Ni2+-NTA, dialysis)
B2: FAM‐Ahx‐hDM2_(160‐192) ^pSer166/pSer186 (peptide)
peptide: SRRRAISETEENSDELSGERQRKRHKSDSISLS
modifications: phosphoserine at 166 and at 186; N-terminal FAM-Ahx (5,6-carboxyfluorescein on an aminohexanoic acid linker); C-terminal amide
notes: hDM2 (human double minute 2 protein), human, residues 160-192; Tracer form used in the FA assays; source: synthetic peptide (Fmoc SPPS on Rink amide ProTide resin, HPLC purified)

What was measured:
[1] = target: the molecule itself; test: AUC; sedimentation velocity; 14 μM 14-3-3η alone or with 7 μM or 14 μM hDMX pSer342/pSer367 peptide; 10 mM HEPES, 150 mM NaCl, pH 7.4; 25 °C; c(s) by SEDFIT
[2] = target: T1, FAM‐Ahx‐hDMX_(335‐373) ^pSer342/pSer367; test: fluorescence polarisation; fluorescence anisotropy, direct titration: 14-3-3 protein titrated (1/2 dilution series) against 50 nM FAM-Ahx tracer peptide; 10 mM HEPES, 150 mM NaCl, 0.1% Tween 20, 0.1% BSA, pH 7.4; 384 well plates, triplicates; protein concentration as 14-3-3 monomer; 1:1 fit, biphasic curves fitted as two separate 1:1 events (Kd1, Kd2); settings: both partners purified
[3] = target: B2; test: as above; settings: both partners purified
14‐3‐3β = target: T2, 14‐3‐3β; test: as above; settings: both partners purified
14‐3‐3τ = target: T3, 14‐3‐3τ; test: as above; settings: both partners purified
14‐3‐3ζ = target: T4, 14‐3‐3ζ; test: as above; settings: both partners purified
14‐3‐3σ = target: T5, 14‐3‐3σ; test: as above; settings: both partners purified
14‐3‐3ε = target: T6, 14‐3‐3ε; test: as above; settings: both partners purified

| Binder | stoichiometry N [1] | Kd1 (first binding event) [2] [µM] | Kd1 (first binding event) [3] [µM] | binding result (14‐3‐3β) | binding result (14‐3‐3τ) | binding result (14‐3‐3ζ) | binding result (14‐3‐3σ) | binding result (14‐3‐3ε) |
| --- | --- | --- | --- | --- | --- | --- | --- | --- |
| B1 | 2 | 0.03 ± 0.006 | 0.05 ± 0.012 |  |  |  |  |  |
| B2 |  |  |  | binds | binds | binds | binds | binds |
